Reference: publication PMC12025923 (Cells, 2025)
Primed or numbered codes have the meaning given here. Where no end group is shown, it is not given here. [ ]: non-standard residue; d: D form. FITC′ = fluorescein isothiocyanate label at the N-terminus; pS = N[C@@H](COP(=O)(O)O)C(=O)O

Key:
14-3-3γ-R57G-nLuc = target: T1, 14-3-3γ-R57G-nLuc (human, UniProt P61981 2-247, R57G); experiment: FRET or BRET; in vitro BRET: 1 nM recombinant nLuc or 14-3-3γ-nLuc with increasing FITC-phosphopeptide in 20 mM Tris-HCl, 150 mM NaCl, 1 mg/mL BSA, 0.1% Tween 20; 250 nM furimazine; net BRET after subtraction of nLuc background; Kd from y = Bmax*x/(Kd + x); details: both partners purified
T1 construct: 14-3-3γ (YWHAG), human, pathogenic patient variant R57G, site-directed mutant of the 14-3-3γ-nLuc plasmid; limits as m8; As m8 with R57G; source: E. coli Rosetta(DE3)pLysS, purified (Ni-NTA); not shown: nLuc (nanoluciferase), C-terminal, kept
T1 sequence (looked up): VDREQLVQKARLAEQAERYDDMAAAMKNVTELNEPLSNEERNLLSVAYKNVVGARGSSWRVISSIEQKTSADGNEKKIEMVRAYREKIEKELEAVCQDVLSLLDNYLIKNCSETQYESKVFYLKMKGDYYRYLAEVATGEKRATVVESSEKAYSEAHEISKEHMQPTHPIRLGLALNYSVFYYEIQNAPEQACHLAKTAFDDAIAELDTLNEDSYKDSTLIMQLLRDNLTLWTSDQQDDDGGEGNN

[1] = target: T2, wild-type 14-3-3γ-nLuc (His6-14-3-3γ-nLuc) (human, UniProt P61981 2-247); experiment: as above; details: both partners purified
T2 construct: Size ~47.5 kDa as printed; The Nluc forward primer encodes a short linker (GGGGTRS, read from the primer) between 14-3-3γ and nLuc; also called wt 14-3-3γ-nLuc; 14-3-3γ-nLuc wt; source: E. coli Rosetta(DE3)pLysS, purified (Ni-NTA); not shown: nLuc (nanoluciferase), C-terminal, kept
T2 sequence (looked up): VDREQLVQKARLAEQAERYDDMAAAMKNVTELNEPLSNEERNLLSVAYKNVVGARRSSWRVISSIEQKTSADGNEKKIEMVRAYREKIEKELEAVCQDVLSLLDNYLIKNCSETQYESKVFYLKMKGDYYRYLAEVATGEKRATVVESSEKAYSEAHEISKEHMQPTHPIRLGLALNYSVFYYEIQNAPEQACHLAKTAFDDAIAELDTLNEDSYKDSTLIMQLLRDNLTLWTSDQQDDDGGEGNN

14-3-3γ-R57C-nLuc [2] = target: T3, 14-3-3γ-R57C-nLuc (human, UniProt P61981 2-247, R57C); experiment: as above; details: both partners purified
T3 construct: 14-3-3γ (YWHAG), human, pathogenic patient variant R57C, site-directed mutant of the 14-3-3γ-nLuc plasmid; limits as m8; As m8 with R57C; source: E. coli Rosetta(DE3)pLysS, purified (Ni-NTA); not shown: nLuc (nanoluciferase), C-terminal, kept
T3 sequence (looked up): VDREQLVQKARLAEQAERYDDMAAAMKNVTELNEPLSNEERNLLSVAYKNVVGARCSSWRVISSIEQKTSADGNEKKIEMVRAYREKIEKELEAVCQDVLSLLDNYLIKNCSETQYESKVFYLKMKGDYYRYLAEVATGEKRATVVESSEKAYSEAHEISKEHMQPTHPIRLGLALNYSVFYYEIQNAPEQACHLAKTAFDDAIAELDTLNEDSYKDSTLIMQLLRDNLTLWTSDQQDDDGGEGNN

[3] = target: T2, wild-type 14-3-3γ-nLuc …; experiment: FRET or BRET; in vitro BRET competition: wt 14-3-3γ-nLuc and FITC-phosphopeptide with increasing doses of R18 peptide (Figure S2D); details: both partners purified
[4] = target: T4, wild-type 14-3-3γ-nLuc (His6-14-3-3γ-nLuc) (human, UniProt P61981 2-247); experiment: degarelix 1 uM
T4 chain: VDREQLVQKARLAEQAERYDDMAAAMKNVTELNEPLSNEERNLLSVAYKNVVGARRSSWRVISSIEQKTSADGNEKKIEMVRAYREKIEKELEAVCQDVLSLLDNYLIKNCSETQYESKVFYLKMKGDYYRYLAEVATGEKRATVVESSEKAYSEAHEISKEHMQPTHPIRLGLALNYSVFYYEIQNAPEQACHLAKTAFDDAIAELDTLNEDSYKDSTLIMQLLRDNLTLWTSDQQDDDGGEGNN

[5] = target: T4, wild-type 14-3-3γ-nLuc …; experiment: nafamostat 25 uM
14-3-3γ-R57C-nLuc [6] = target: T5, 14-3-3γ-R57C-nLuc (human, UniProt P61981 2-247, R57C); experiment: degarelix 1 uM; apparent, Bmax set to wild-type
T5 sequence: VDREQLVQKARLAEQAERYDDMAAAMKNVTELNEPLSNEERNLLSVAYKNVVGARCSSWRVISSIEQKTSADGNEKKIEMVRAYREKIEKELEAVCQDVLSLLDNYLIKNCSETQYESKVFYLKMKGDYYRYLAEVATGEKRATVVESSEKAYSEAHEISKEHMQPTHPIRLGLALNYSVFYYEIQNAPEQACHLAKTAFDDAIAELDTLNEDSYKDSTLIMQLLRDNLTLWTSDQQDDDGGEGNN

14-3-3γ-R57C-nLuc [7] = target: T5, 14-3-3γ-R57C-nLuc; experiment: nafamostat 25 uM; apparent, Bmax set to wild-type
14-3-3γ-R57C-nLuc [8] = target: T5, 14-3-3γ-R57C-nLuc; experiment: DMSO; apparent, Bmax set to wild-type

Row | Binder | percent of the phosphopeptide binding reached at the highest peptide concentration (14-3-3γ-R57G-nLuc) [%] | Kd [1] [nM] | percent of the phosphopeptide binding reached at the highest peptide concentration (14-3-3γ-R57C-nLuc [2]) [%] | binding result [3] | Kd [4] [nM] | Kd [5] [nM] | Kd (14-3-3γ-R57C-nLuc [6]) [nM] | Kd (14-3-3γ-R57C-nLuc [7]) [nM] | Kd (14-3-3γ-R57C-nLuc [8]) [nM]
1 | {FITC′}-FPQSA[pS]LPPYFS (SLP76 (Lymphocyte cytosolic protein 2/LCP2), human; source: synthetic peptide (AbClonal)) [FITC-pSLP76] | ~30 | 47.5 | ~30 |  |  |  |  |  | 
2 | PHCVPRDLSWLDLEANMCLP (Not labelled with FITC (only the phosphopeptides were); source: synthetic peptide (AbClonal)) [R18 peptide] |  |  |  | binds |  |  |  |  | 
3 | {FITC′}-MPTPDATTPQAKGFRRAV[pS]ELDAKQAEAIMSPRFIGRRQSLIE (also called phosphopeptide derived from tyrosine hydroxylase (TH); source: synthetic peptide (AbClonal)) [FITC-pTH] |  | 84.3 |  |  | 36.2 | 75 | 22200 | 5280 | 
4 | {FITC′}-QRHSN[pS]LGPIFDGSGGGSGIKARAS[pS]SPVILVGTHLD (leucine-rich repeat kinase 2 (LRRK2), human; also called FITC-LRRK2; source: synthetic peptide (AbClonal)) [FITC-ppLRRK2] | ~30 | 0.74 | ~30 |  | 0.89 | 0.8 | 25.2 | 44.1 | 431
